Source: the Human Domainome abundance scans (Beltran et al. 2025)
± gives the uncertainty stated by the source.

B1: Transcription factor SOX-11, residues 50 to 117; numbered along this chain, P35716 (parent)
chain: KRPMNAFMVWSKIERRKIMEQSPDMHNAEISKRLGKRWKMLKDSEKIPFIREAERLRLKHMADYPDYK

Variants of: B1
Test: abundance fitness (aPCA) (normalised: wild type 0, dead -1); higher = more abundant; growth selection in yeast, the domain comes from the species named
Conditions: Homo sapiens

Q: With V9S as the variant, how does the abundance fitness read?
A: -0.847 ± 0.079

Q: For V9Y, which abundance fitness is on record?
A: -0.558 ± 0.069

Q: For V9W, which abundance fitness is on record?
A: -0.411 ± 0.19

Q: With V9C as the variant, how does the abundance fitness read?
A: -0.448 ± 0.087

Q: Which abundance fitness does the source give for V9L here?
A: 0.177 ± 0.054

Q: With V9N as the variant, how does the abundance fitness read?
A: -0.734 ± 0.089

Q: With V9T as the variant, how does the abundance fitness read?
A: -0.777 ± 0.12

Q: For V9P, which abundance fitness is on record?
A: -0.891 ± 0.16

Q: For V9G, which abundance fitness is on record?
A: -0.687 ± 0.11

Q: For V9D, which abundance fitness is on record?
A: -0.671 ± 0.12

Q: Which abundance fitness does the source give for V9A here?
A: -0.644 ± 0.12

Q: With V9R as the variant, how does the abundance fitness read?
A: -0.926 ± 0.14

Q: For V9I, which abundance fitness is on record?
A: 0.037 ± 0.053

Q: For V9Q, which abundance fitness is on record?
A: -0.894 ± 0.25

Q: Which abundance fitness does the source give for V9M here?
A: -0.61 ± 0.17

Q: For V9F, which abundance fitness is on record?
A: -0.63 ± 0.07

Q: With V9H as the variant, how does the abundance fitness read?
A: -0.402 ± 0.087

Q: For P23A, which abundance fitness is on record?
A: -0.391 ± 0.079

Q: For P23D, which abundance fitness is on record?
A: -0.739 ± 0.093

Q: Which abundance fitness does the source give for M19D here?
A: -0.649 ± 0.1

Q: With M19I as the variant, how does the abundance fitness read?
A: -0.062 ± 0.057

Q: For M19E, which abundance fitness is on record?
A: -0.069 ± 0.16

Q: For M19K, which abundance fitness is on record?
A: 0.021 ± 0.15

Q: Which abundance fitness does the source give for M19W here?
A: -0.762 ± 0.19

Q: With M19T as the variant, how does the abundance fitness read?
A: -0.103 ± 0.064

Q: For M19C, which abundance fitness is on record?
A: -0.29 ± 0.075

Q: Which abundance fitness does the source give for M19H here?
A: -0.187 ± 0.079

Q: With M19G as the variant, how does the abundance fitness read?
A: -0.435 ± 0.076

Q: For M19Q, which abundance fitness is on record?
A: -0.202 ± 0.15

Q: Which abundance fitness does the source give for M19N here?
A: -0.426 ± 0.071

Q: For M19V, which abundance fitness is on record?
A: -0.042 ± 0.052

Q: With M19S as the variant, how does the abundance fitness read?
A: -0.264 ± 0.056

Q: Which abundance fitness does the source give for M19P here?
A: -0.769 ± 0.14

Q: For M19R, which abundance fitness is on record?
A: -0.24 ± 0.063

Q: Which abundance fitness does the source give for I18V here?
A: -0.307 ± 0.059

Q: For I18H, which abundance fitness is on record?
A: -0.918 ± 0.17

Q: With I18F as the variant, how does the abundance fitness read?
A: -0.688 ± 0.1

Q: With I18G as the variant, how does the abundance fitness read?
A: -0.772 ± 0.075

Q: For I18K, which abundance fitness is on record?
A: -0.856 ± 0.29

Q: Which abundance fitness does the source give for I18R here?
A: -0.945 ± 0.12

Q: Which abundance fitness does the source give for I18A here?
A: -0.521 ± 0.11

Q: Which abundance fitness does the source give for I18S here?
A: -0.732 ± 0.083

Q: Which abundance fitness does the source give for I18T here?
A: -0.884 ± 0.17

Q: Which abundance fitness does the source give for I18E here?
A: -0.355 ± 0.17

Q: For I18W, which abundance fitness is on record?
A: -0.256 ± 0.11

Q: With I18D as the variant, how does the abundance fitness read?
A: -0.741 ± 0.12

Q: Which abundance fitness does the source give for I18Y here?
A: -0.34 ± 0.075

Q: With I18C as the variant, how does the abundance fitness read?
A: -0.714 ± 0.1

Q: For I18Q, which abundance fitness is on record?
A: -0.869 ± 0.33

Q: Which abundance fitness does the source give for I18P here?
A: -0.619 ± 0.21

Q: With I18N as the variant, how does the abundance fitness read?
A: -0.625 ± 0.097

Q: Which abundance fitness does the source give for K12E here?
A: 0.359 ± 0.14

Q: For K12A, which abundance fitness is on record?
A: 0.175 ± 0.062

Q: With K12N as the variant, how does the abundance fitness read?
A: 0.014 ± 0.064

Q: Which abundance fitness does the source give for K12L here?
A: -0.016 ± 0.074

Q: With K12I as the variant, how does the abundance fitness read?
A: -0.099 ± 0.059

Q: For K12P, which abundance fitness is on record?
A: -0.746 ± 0.18

Q: With K12F as the variant, how does the abundance fitness read?
A: -0.232 ± 0.067

Q: With K12V as the variant, how does the abundance fitness read?
A: 0.012 ± 0.05

Q: Which abundance fitness does the source give for K12C here?
A: -0.131 ± 0.07

Q: Which abundance fitness does the source give for K12Y here?
A: -0.448 ± 0.078

Q: For K12H, which abundance fitness is on record?
A: -0.006 ± 0.064

Q: With K12W as the variant, how does the abundance fitness read?
A: -0.89 ± 0.32

Q: Which abundance fitness does the source give for K12Q here?
A: 0.007 ± 0.19

Q: For K12S, which abundance fitness is on record?
A: 0.074 ± 0.053

Q: For K12G, which abundance fitness is on record?
A: -0.2 ± 0.062

Q: Which abundance fitness does the source give for K12T here?
A: -0.119 ± 0.08

Q: Which abundance fitness does the source give for K12M here?
A: -0.043 ± 0.25

Q: With M4W as the variant, how does the abundance fitness read?
A: -0.251 ± 0.13

Q: With M4R as the variant, how does the abundance fitness read?
A: -0.874 ± 0.11

Q: With M4E as the variant, how does the abundance fitness read?
A: -0.004 ± 0.18

Q: For M4K, which abundance fitness is on record?
A: -0.539 ± 0.23

Q: With M4Q as the variant, how does the abundance fitness read?
A: -0.248 ± 0.15

Q: Which abundance fitness does the source give for M4G here?
A: -0.28 ± 0.063

Q: With M4T as the variant, how does the abundance fitness read?
A: -0.145 ± 0.079

Q: For M4Y, which abundance fitness is on record?
A: -0.256 ± 0.06

Q: For M4I, which abundance fitness is on record?
A: 0.158 ± 0.05

Q: For M4C, which abundance fitness is on record?
A: -0.787 ± 0.11

Q: Which abundance fitness does the source give for M4D here?
A: 0.059 ± 0.065

Q: With M4L as the variant, how does the abundance fitness read?
A: -0.188 ± 0.064

Q: Which abundance fitness does the source give for M4N here?
A: -0.292 ± 0.058

Q: With M4S as the variant, how does the abundance fitness read?
A: -0.334 ± 0.052

Q: Which abundance fitness does the source give for M4V here?
A: 0.005 ± 0.051
